Numbering of substitutions follows the chain as printed. Names may count otherwise.

Sequences and labels used below:
T1: PUF4 RNA-binding domain (Saccharomyces cerevisiae, UniProt P25339 537-888)
T1 sequence: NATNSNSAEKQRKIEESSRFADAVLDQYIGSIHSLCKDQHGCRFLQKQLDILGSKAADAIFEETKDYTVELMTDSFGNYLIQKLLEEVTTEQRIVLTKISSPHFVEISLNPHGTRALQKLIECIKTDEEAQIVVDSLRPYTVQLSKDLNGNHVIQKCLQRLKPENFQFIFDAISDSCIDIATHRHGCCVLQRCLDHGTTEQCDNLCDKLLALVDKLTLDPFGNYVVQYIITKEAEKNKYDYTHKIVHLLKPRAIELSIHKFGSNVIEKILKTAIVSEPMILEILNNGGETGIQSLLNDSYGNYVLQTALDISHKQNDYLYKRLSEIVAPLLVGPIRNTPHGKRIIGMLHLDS

B1: Ic_S4_P4E.1_K4.1_C4.1_H4.1_A4.1_[T5C]_[T7A]_F4.1_[T8A]_T4.1 (ssRNA)
RNA: UUUGACAACUGAUCGUUCUUUCUUGUACAAAAUUCUUUCUCGAUCAGUUGUCUUU
B2: Ic_S4_P4E.1_K4.1_C4.1_H4.1_A4.1_[T5A]_[A6C]_F4.1_[T8A]_[A9T]_T4.1 (ssRNA)
RNA: B1 RNA with C28A, A29C, A30U, A32U
B3: Ic_S4_P4E.1_K4.1_C4.1_H4.1_A4.1_[T5A]_[A6C]_[T7G]_F4.1_T4.1 (ssRNA)
RNA: B1 RNA with C28A, A29C, A30G, A31U
B4: Ic_S4_P4E.1_K4.1_C4.1_H4.1_A4.1_[T5A]_[A6T]_[T7G]_F4.1_[T8C]_[A9C]_T4.1 (ssRNA)
RNA: B1 RNA with C28A, A29U, A30G, A31C, A32C
B5: Ic_S4_P4E.1_K4.1_C4.1_H4.1_A4.1_[T5A]_[A6C]_F4.1_T4.1 (ssRNA)
RNA: B1 RNA with C28A, A29C, A30U, A31U
B6: Ic_S4_P4E.1_K4.1_C4.1_H4.1_A4.1_[T5C]_F4.1_[T8G]_[A9C]_T4.1 (ssRNA)
RNA: B1 RNA with A30U, A31G, A32C
B7: Ic_S4_P4E.1_K4.1_C4.1_H4.1_A4.1_[T5A]_[A6C]_[T7A]_F4.1_[T8A]_[A9C]_T4.1 (ssRNA)
RNA: B1 RNA with C28A, A29C, A32C
B8: Ic_S4_P4E.1_K4.1_C4.1_H4.1_A4.1_[T5A]_[A6C]_F4.1_[T8A]_[A9C]_T4.1 (ssRNA)
RNA: B1 RNA with C28A, A29C, A30U, A32C
B9: Ic_S4_P4E.1_K4.1_C4.1_H4.1_A4.1_[T5A]_[A6C]_[T7C]_F4.1_[T8C]_[A9T]_T4.1 (ssRNA)
RNA: B1 RNA with C28A, A29C, A30C, A31C, A32U
B10: Ic_S4_P4E.1_K4.1_C4.1_H4.1_A4.1_[T5C]_[T7A]_F4.1_[A9C]_T4.1 (ssRNA)
RNA: B1 RNA with A31U, A32C
B11: Ic_S4_P4E.1_K4.1_C4.1_H4.1_A4.1_[T5A]_[A6C]_F4.1_[T8G]_[A9T]_T4.1 (ssRNA)
RNA: B1 RNA with C28A, A29C, A30U, A31G, A32U
B12: Ic_S4_P4E.1_K4.1_C4.1_H4.1_A4.1_[T5A]_[A6C]_[T7A]_F4.1_[T8G]_[A9C]_T4.1 (ssRNA)
RNA: B1 RNA with C28A, A29C, A31G, A32C
B13: Ic_S4_P4E.1_K4.1_C4.1_H4.1_A4.1_[T5C]_F4.1_[T8A]_T4.1 (ssRNA)
RNA: B1 RNA with A30U
B14: Ic_S4_P4E.1_K4.1_C4.1_H4.1_A4.1_[T5A]_[A6C]_[T7A]_F4.1_[T8C]_[A9C]_T4.1 (ssRNA)
RNA: B1 RNA with C28A, A29C, A31C, A32C
B15: Ic_S4_P4E.1_K4.1_C4.1_H4.1_A4.1_[T5C]_F4.1_[A9C]_T4.1 (ssRNA)
RNA: B1 RNA with A30U, A31U, A32C
B16: Ic_S4_P4E.1_K4.1_C4.1_H4.1_A4.1_[T5A]_[A6C]_[T7G]_F4.1_[A9T]_T4.1 (ssRNA)
RNA: B1 RNA with C28A, A29C, A30G, A31U, A32U
B17: Ic_S4_P4E.1_K4.1_C4.1_H4.1_A4.1_[T5C]_F4.1_[T8A]_[A9T]_T4.1 (ssRNA)
RNA: B1 RNA with A30U, A32U
B18: Ic_S4_P4E.1_K4.1_C4.1_H4.1_A4.1_[T5C]_F4.1_[T8A]_[A9G]_T4.1 (ssRNA)
RNA: B1 RNA with A30U, A32G
B19: Ic_S4_P4E.1_K4.1_C4.1_H4.1_A4.1_[T5A]_[A6C]_[T7G]_F4.1_[T8G]_[A9T]_T4.1 (ssRNA)
RNA: B1 RNA with C28A, A29C, A30G, A31G, A32U
B20: Ic_S4_P4E.1_K4.1_C4.1_H4.1_A4.1_[T5C]_F4.1_[T8C]_[A9T]_T4.1 (ssRNA)
RNA: B1 RNA with A30U, A31C, A32U
B21: Ic_S4_P4E.1_K4.1_C4.1_H4.1_A4.1_[T5A]_[A6C]_[T7C]_F4.1_[A9T]_T4.1 (ssRNA)
RNA: B1 RNA with C28A, A29C, A30C, A31U, A32U
B22: Ic_S4_P4E.1_K4.1_C4.1_H4.1_A4.1_[T5A]_[A6C]_F4.1_[A9G]_T4.1 (ssRNA)
RNA: B1 RNA with C28A, A29C, A30U, A31U, A32G
B23: Ic_S4_P4E.1_K4.1_C4.1_H4.1_A4.1_[T5A]_[A6C]_[T7A]_F4.1_[A9C]_T4.1 (ssRNA)
RNA: B1 RNA with C28A, A29C, A31U, A32C
B24: Ic_S4_P4E.1_K4.1_C4.1_H4.1_A4.1_[T5A]_[A6C]_[T7C]_F4.1_[A9G]_T4.1 (ssRNA)
RNA: B1 RNA with C28A, A29C, A30C, A31U, A32G
B25: Ic_S4_P4E.1_K4.1_C4.1_H4.1_A4.1_[T5A]_[A6C]_F4.1_[T8A]_[A9G]_T4.1 (ssRNA)
RNA: B1 RNA with C28A, A29C, A30U, A32G
B26: Ic_S4_P4E.1_K4.1_C4.1_H4.1_A4.1_[T5A]_[A6C]_[T7A]_F4.1_[T8G]_[A9T]_T4.1 (ssRNA)
RNA: B1 RNA with C28A, A29C, A31G, A32U
B27: Ic_S4_P4E.1_K4.1_C4.1_H4.1_A4.1_[T5A]_[A6C]_F4.1_[T8C]_[A9G]_T4.1 (ssRNA)
RNA: B1 RNA with C28A, A29C, A30U, A31C, A32G
B28: Ic_S4_P4E.1_K4.1_C4.1_H4.1_A4.1_[T5A]_[A6C]_F4.1_[T8C]_[A9T]_T4.1 (ssRNA)
RNA: B1 RNA with C28A, A29C, A30U, A31C, A32U
B29: Ic_S4_P4E.1_K4.1_C4.1_H4.1_A4.1_[T5A]_[A6C]_F4.1_[T8C]_T4.1 (ssRNA)
RNA: B1 RNA with C28A, A29C, A30U, A31C
B30: Ic_S4_P4E.1_K4.1_C4.1_H4.1_A4.1_[T5A]_[A6C]_[T7C]_F4.1_[T8G]_[A9C]_T4.1 (ssRNA)
RNA: B1 RNA with C28A, A29C, A30C, A31G, A32C
B31: Ic_S4_P4E.1_K4.1_C4.1_H4.1_A4.1_[T5A]_[A6C]_[T7G]_F4.1_[T8G]_[A9C]_T4.1 (ssRNA)
RNA: B1 RNA with C28A, A29C, A30G, A31G, A32C
B32: Ic_S4_P4E.1_K4.1_C4.1_H4.1_A4.1_[T5A]_[A6C]_[T7G]_F4.1_[A9C]_T4.1 (ssRNA)
RNA: B1 RNA with C28A, A29C, A30G, A31U, A32C
B33: Ic_S4_P4E.1_K4.1_C4.1_H4.1_A4.1_[T5A]_[A6T]_[T7G]_F4.1_[T8C]_[A9T]_T4.1 (ssRNA)
RNA: B1 RNA with C28A, A29U, A30G, A31C, A32U
B34: Ic_S4_P4E.1_K4.1_C4.1_H4.1_A4.1_[T5C]_F4.1_[A9G]_T4.1 (ssRNA)
RNA: B1 RNA with A30U, A31U, A32G
B35: Ic_S4_P4E.1_K4.1_C4.1_H4.1_A4.1_[T5A]_[A6C]_[T7A]_F4.1_T4.1 (ssRNA)
RNA: B1 RNA with C28A, A29C, A31U
B36: Ic_S4_P4E.1_K4.1_C4.1_H4.1_A4.1_[T5A]_[A6C]_[T7C]_F4.1_T4.1 (ssRNA)
RNA: B1 RNA with C28A, A29C, A30C, A31U
B37: Ic_S4_P4E.1_K4.1_C4.1_H4.1_A4.1_[T5A]_[A6C]_[T7G]_F4.1_[T8C]_[A9T]_T4.1 (ssRNA)
RNA: B1 RNA with C28A, A29C, A30G, A31C, A32U

The target of the data set is T1, PUF4 RNA-binding domain. Description: Mg; RNA-MaP; 20 mM Na-HEPES pH 7.4, 30 mM KOAc, 0.75 mM MgCl2, 0.1% Tween-20, 5% glycerol, 0.1 mg/mL BSA, 2 mM DTT; 25 C; 0.0125-409.6 nM protein. Particulars: tags: N-His6-TEV cleaved; C-SNAP kept, Cy3B-labelled; label: tethered on chip by stalled RNA polymerase.
The term Kd denotes the equilibrium constant for the complex coming apart. In turn, UCUCUUUGUCUAUUAUCUCUU (ssRNA) [Ia_S1_P4E.1_K4.1_C4.1_H4.1_[A4C]_A4.1_F4.1_T4.1] had a Kd of 12.7 nM.

As to B1, binding was put at a Kd of 13.8 nM.

B2 gave a Kd of 49.4 nM. For the molecule B3, binding was put at a Kd of 14.5 nM. As for B4, the figure is 1200 nM; as for B5, 3.93 nM; as for B6, 14.3 nM. As for B7, the figure is 1050 nM; as for B8, 287 nM. On to B9, for which the dissociation constant (Kd) was found to be 225 nM. As for B10, the figure is 22.1 nM; as for B11, 95.2 nM; as for B12, 879 nM.

With B13, the Kd was determined as 2.32 nM. As for B14, the figure is 215 nM. The molecule B15 had an equilibrium dissociation constant (Kd) of 3.55 nM. B16 had an equilibrium dissociation constant (Kd) of 84.3 nM. In turn, B17 had an equilibrium dissociation constant (Kd) of 1.55 nM. In the case of B18, the affinity, expressed as Kd, was 11 nM. The value for B19 was 1290 nM; that for B20 was 11.1 nM; that for B21 was 31.1 nM. Molecule B22 returned a Kd of 84.8 nM.

Consider B23, for which the affinity, expressed as Kd, was 22.5 nM. Take B24: binding was put at a Kd of 44.1 nM. B25 returned a Kd of 653 nM. The value for B26 was 604 nM; that for B27 was 577 nM; that for B28 was 72 nM. B29 came in with a Kd of 281 nM. As for B30, the figure is 927 nM; as for B31, more than 2300 nM; as for B32, 919 nM. The value for B33 was 518 nM; that for B34 was 3.85 nM; that for B35 was 1.34 nM. As for B36, the equilibrium dissociation constant (Kd) is 5.74 nM.

Consider B37, for which binding was characterised by a dissociation constant (Kd) of 205 nM. As for UCUCUUUGUAUAUGUCUCUU (ssRNA) [Ia_S1_P3E.1_K3.1_C3.1_H3.1_A3.1_F3.1_[A8G]_T3.1], the figure is 17 nM; as for UCUCUUUGUAUCUCAUCUCUU (ssRNA) [Ib_S1_P4E.1_K4.1_C4.1_H4.1_A4.1_[A6C]_F4.1_[T8C]_T4.1], 34.6 nM.

UCUCUUUGUAUUUCAUCUCUU (ssRNA) [Ib_S1_P4E.1_K4.1_C4.1_H4.1_A4.1_[A6T]_F4.1_[T8C]_T4.1] displayed an equilibrium dissociation constant (Kd) of 69.6 nM. The value for UCUCUUUGUAUGUCAUCUCUU (ssRNA) [Ic_S1_P4E.1_K4.1_C4.1_H4.1_A4.1_[A6G]_F4.1_[T8C]_T4.1] was 384 nM.

For the origin of these results see paper PMC9352680, “A comprehensive thermodynamic model for RNA binding by the Saccharomyces cerevisiae Pumilio protein PUF4”.
